The data set in a line: soluble on expression in E. coli; label from the status in PepcDB or PDB records.
Regarding “AIGEFMVSLPRMVYPQPKVLTPCRKDVLVVTPWLAPIVWEGTFNIDILNEQFRLQNTTIGLTVFAIKKYVAFLKLFLETAEKHFMVGHRVHYYVFTDQPAAVPRVTLGTGRQLSVLEVRAYKRWQDVSMRRMEMISDFCERRFLSEVDYLVCVDVDMEFRDHVGVEILTPLFGTLHPGFYGSSREAFTYERRPQSQAYIPKDEGDFYYLGGFFGGSVQEVQRLTRACHQAMMVDQANGIEAVWHDESHLNKYLLRHKPTKVLSPEYLWDQQLLGWPAVLRKLRFTAVPKNHQAVRNP”, the “soluble on expression in E. coli” value was “soluble”.

Regarding “AKWPHLKVGGAILVAPAEPRHSDRTESFGPIFEESLGVPAYVVSSRNDPWMSFTQAERLARAWRADVVDLGFAGHINVDSGFGPWPGGVVLRDELARRPVP”, the “soluble on expression in E. coli” value is recorded as “not soluble”.

As to “ALENLQVEASCSVCLEYLKEPVIIECGHNFCKACITRWWEDLERDFPCPVC”, the “soluble on expression in E. coli” value is given as “soluble”. Next, “ALSGECADEIFGGYPWFMRKEMIYANTFPWSRFVNERISLLSDDLKSINLQEYVDARYKENLNNVPVSDEDSPYAKRMRELFYLNIKWFMITLLTRKDRMSMANSLEVRVPFADYRLVEYAFNIPPEIKFLNGREKGILRKAFEGVLPQDVIERKKSPYPKTFDPRYTALVQKWLKKVVEDKTSPILDIIDLKTVNELIETGGSSYKTPWFGQLMKGPQLIAYLLQVNFWLKEY”: “not soluble”.

For “ALTVRKHYTKEQARVTVVNKYPTHQIITELHRLAAGNVSEKAVAMPLEKLFKGKDIDLKIAEVSSFSVDKKEVALADGSTLTYDALVVGLGSVTAYFGIPGLEENSMVLKSAADANKVFQHVEDRVREYSKTKNEADATILIGGGGLTGVELVGELADIMPNLAKKYGVDHKEIKLKLVEAGPKILPVLPDDLIERATASLEKRGVEFLTGLPVTNVEGNVIDLKDGSKVVANTFVWTGGVQGNPLVGESGLEVNRGRATVNDFLQSTSHEDVFVAGDSAVYFGPDGRPYPPTAQIAWQMGELIGYNLFAYLEGKTLETFKPVNSGTLASLGRKDAVAIIGANSTPLKGLPASLMKEASNVRYLTHIK”, the “soluble on expression in E. coli” value is “not soluble”. The result for “AMSKIICLTAGHSNTDPGAVNGSDREADLAQDMRNIVASILRNDYGLTVKTDGTGKGNMPLRDAVKLIRGSDVAIEFHTNAAANKTATGIEALSTPKNKRWCQVLGKAVAKKTGWKLRGEDGFKPDNAGQHSRLAYAQAGGIVFEPFFISNDTDLALFKTTKWGICRAIADAIAMELGAAKV” reads “soluble”; that for “ANKLDSKKLTRSNGTTLEYSQITDADNATKAVETLKNSIKLEGSLVVGKTTVEIKEGTVTLKREIEKDGKVKVFLNDTAGSNKKTGKWEDSTSTLTISADSKKTKDLVFLTDGTITVQQYNTAGTSLEGSASEIKNLSELKNALK”, “soluble”. The result for “APAAVDWRARGAVTAVKDQGQCGSCWAFSAIGNVECQWFLAGHPLTNLSEQMLVSCDKTDSGCSGGLMNNAFEWIVQENNGAVYTEDSYPYASGEGISPPCTTSGHTVGATITGHVELPQDEAQIAAWLAVNGPVAVAVDASSWMTYTGGVMTSCVSEALDHGVLLVGYNDSAAVPYWIIKNSWTTQWGEEGYIRIAKGSNQCLVKEEASSAVVG” reads “soluble”. Next, “AQHPPYCRNQPGKCQIPLQSLFDRATTVANYNSKLAGEMVNRFDEQYGQGINSESKVINCHTSSITTPNSKAEAINTEDKILFKLVISLLHSWDEPLHHAVTELANSKGTSPALLTKAQEIKEKAKVLVDGVEVIQKRIHPGEKNEPYPVWSEQSSLTSQDENVRRVAFYRLFHCLHRDSSKIYTYLRILKCRLTSCET”: “soluble”. Consider “ARFYSDGLKLAGTLFVPDDYEPGQKRPAVLICHGRFAIKEWVPSRWTPHFLAAGYVCMVFDYRNLGESEGTPGRIIPDEEVRDARHALTYLQCQPEVDPARIGALGWGLGGGVAVSAAAHDARIKAVVCAIGVANGGRYGRVGMSDAAWAARQEQIAADRRERVLTGRSARLPRTEILGRPDAQRAERHERQNWIDSLVAAVGPERAADPAKLGIPDEITLESMEALYDFAPDAVVDRIAPRPLLIVHARDDHEFPFEHAADMYERAAQPKQLIAVEDAGHLDWIDPAHPSQQVYVPQVVAWMQAQL”, for which the “soluble on expression in E. coli” value is recorded as “not soluble”. In the case of “ASAFSESEETFVRIVAQWAGKEISRRRNQKRANAERERLRQIIDTIPQQVFVKDADGTYTLANKAAAAAHGVAVERLEGATHDEFALSDEQRDFKSDDAAVIENGESVHIEEDGLVEADGSSHTVQTDIVPIEIAS”, the “soluble on expression in E. coli” value is “not soluble”. The result for “ASGTTLNWTGRMLGNGTLVKEGAGTLALSGFNAHGGTVVNAGTVQISNDYGLGNGALTLNNSRLASTADIYAEAAATVNGNGTFDTANGTTLQWMGDIGGAGALVKTGAGTLLLGGDSLY” reads “not soluble”. The result for “ASHMQRIAVTAEGPGLDGLVDPRFGRAAGFVVVDAATMAAEYVDNGASQTLSHGAGINAAQVLAKSGAGVLLTGYVGPKAFQALQAAGIKVGQDLEGLTVRQAVQRFLDGQVPMAAGPNK” reads “soluble”. The result for “ASITGDALVALPEGESVRIADIVPGARPNSDNAIDLKVLDRHGNPVLADRLFHSGEHPVYAVRTVEGLRVTGTANHPLLCLVDVAGVPTLLWKLIDEIKPGDYAVIQRSAFSVDCAGFARGKPEFAPTTYTVGVPGLVRFLEAHHRDPDAKAIADELTDGRFYYAKVASVTDAGVQPVYSLRVDTADHAFITNGFVSHN” reads “soluble”.

With “ASLYEKLGGAAAVDLAVEKFYGKVLADERVNRFFVNTDMAKQKQHQKDFMTYAFGGTDRFPGRSMRAAHQDLVENAGLTDVHFDAIAENLVLTLQELNVSQDLIDEVVTIVGSVQHRNDVLNR”, the “soluble on expression in E. coli” value was “soluble”.

Take “ASWSHPQFEKSGGGGGLVPRGSKRADAGTASALAASQLPQATMPGKSMVAIAGSSYQGQNGLAIGVSRISDNGKVIIRLSGTTNSQGKTGVAAGVGYQW”: the “soluble on expression in E. coli” value was “soluble”. The result for “ATAVNGAPRDAALWSSHEQMLAQPLKDSDAEVYDIIKKESNRQRVGLELIASENFASRAVLEALGSCLNNKYSEGYPGQRYYGGTEHIDELETLCQKRALQAYGLDPQCWGVNVQPYSGSPANFAVYTALVEPHGRIMGLDLPDGGHLTHGFMTDKKKISATSIFFESMAYKVNPDTGYIDYDRLEENARLFHPKLIIAGTSCYSRNLDYGRLRKIADENGAYLMADMAHISGLVVAGVVPSPFEHCHVVTTTTHKTLRGCRAGMIFYRRGVRSVDPKTGKEILYNLESLINSAVFPGLQGGPHNHAIAGVAVALKQAMTPEFKEYQRQVVANCRALSAALVELGYKIVTGGSDNHLILVDLRSKGTDGGRAEKVLEACSIACNKNTCPGDKSALRPSGLRLGTPALTSRGLLEKDFQKVAHFIHRGIELTVQIQDDTGPRATLKEFKEKLAGDEKHQRAVRALRQEVESFAALFPLPGLPGF” reads “soluble”; that for “ATHTAQTQTHLNFTQIKTVDELNQALVEAKGKPVMLDLYADWCVACKEFEKYTFSDPQVQKALADTVLLQANVTANDAQDVALLKHLNVLGLPTILFFDGQGQEHPQARVTGFMDAETFSAHLRDRQPHHHHHH”, “soluble”; that for “ATIKDVAKRANVSTTTVSHVINKTRFVAEETRNAVWAAIKELHYSPSAVARSLKVNHTKSIGLLATSSEAAYFAEIIEAVEKNCFQKGYTLILGNAWNNLEKQRAYLSMMAQKRVDGLLVMCSEYPEPLLAMLEEYRHIPMVVMDAGEAKADFTDAVIDNAFEGGYMAGRYLIERGHREIGVIPGPLERNTGAGRLAGFMKAMEEAMIKVPESWIVQGDFEPESGYRAMQQILSQPHRPTAVFCGGDIMAMGALCAADEMGLRVPQDVSLIGYDNVRNARYFTPALTTIHQPKDSLGETAFNMLLDRIVNKREEPQSIEVHPRLIERRSVADGPFRDYRR”, “soluble”. On to “AVIGMNEAASALTPSRVSSLPDTQRAAWQEYLARSEAQLSRDKASLAAELAPGQPLPPPPAEGKGADTMPLDKPAAWYTSKAARHVADVIVSFQTPAGGWGKNQPRDGALRLPGQHYTGENVAKVKSGSNDLDAARDRDWHYVGTIDNDATVTEIRFLAQVVSQLAPEEAAPYRDAALKGIEYLLASQFPNGGWPQVWPLEGGYHDAITYNDDALVHVAELLSDIAAGRDGFGFVPPAIRTRALEATNAAIHCIVETQVVQDGKRLGWGQQHDALTLRPTSARNFEPAALSSTESARILLFLMEIEAPSDAVKQAIRGGVAWLNTSVIRDRAWVKSDQGYQLVTEQGAKPLWSRFYSLDGNKPVFGDRDKTIHDDVMGISQERRTGYAWYTTSPQKALSAFTKWEKRS”, for which the “soluble on expression in E. coli” value is on record as “soluble”. Next, “AVREEIAGALYLGHSEGVVEKEDRDRILGALDLAERTVEEIMLHRSNIVMLDADAEPETILEHCLQSPHTRLPVYRGEPENIIGVVHAKDLFRAMYAQVGGSEGHTARLKDFDISRVANAPYFVPETTTLDDQMRAFLRMRSHFALVVDEYGSLRGLITLEDILEEIVGEIT”: “not soluble”. As for “AVYGIDAMNPSSRDDFTEFGKLLKDKITQYEKSLYYASFLEVLVRDVCISLEIDDLKKITNSLTVLCSEKQKQEKQSKAK”, the “soluble on expression in E. coli” value is recorded as “soluble”. Next, “CSKPETNVVAQDGSTSAAAAQVETQTAESRYLALVDGYFKDYLKLEPIYATFVGVNDYNTQFGGDLTEEYLKARHDLNTRYLAQVKTIDLDELPADLQLSYSLFVYDREMALVDETYPSRFMPISQFYSTVITMVQLGSGESAQPFNTVQDYRNWEQRVNGFIDWIKLAQHRMDEGIASKVVLPRVLVERIIPQLDAMLTTDASQSIFYSPITHFPEGFSAQDKAELTASYQAMISERLVPTLTGLRDYFKQTYLPKSRATDGWSGLPNGKAWYQHLANSHTTTTMPVDEIHQIGLSEVARILSEMDKVREQVGFKGDLKAFFASLSSEPQYFYSDRQGLIDGYMALKDKINLVLPQYFNVMPKADYVVKPVESFREQSAAGASYEAPAVDGSRPGVFYINTYNLKAQPKWGMTTLSLHEAAPGHHFQIAIKQELTGVPEFQRFSGYTAFEEGWALYAEYLGIEMGLFSDPYQYFGKLSDEMLRAMRLVVDTGLHAKGWSREQAIQYMKDNSPMAESDIVAEVERYMAIPGQALSYKVGQLKILALRERAEKALGDKFDLKAFHDQILTSGSLPMAVMEQKIDRWIAANK”: “not soluble”. Turning to “DAAKSHAPVVRSMEASLSPELKRELSDGIECIGIGGGDLHTRIVWTQYGTLPHRVGDVQCRYRIVLLPQNADAPQGWQTVWQGARPRNKDSKFALIRKIGENI”, the “soluble on expression in E. coli” value is given as “not soluble”.

In the case of “DAIAVWGHRPSAAKPVAIAKAAGKPVIRLEDGFVRSLDLGVNGEPPLSLVVDDCGIYYDASKPSALEKLVQDKAGNAALADQAREAMHTIVTGDLSKYNLAPAFVADESERADIVLVVDQTFNDMSVTYGNAGPHEFAAMLEAAMEENPQAEIWVKVHPDVLEGKKTGYFADLRATQRVRLIAENVSPQSLLRHVSRVYVVTSQYGFEALLAGKPVTCFGQPWYAGWGLTDDRHPQSALLSARRGSATLEELFAAAYLRYCRYIDPLTG”, the “soluble on expression in E. coli” value is “not soluble”. The result for “DCCSCQEKWVGYRCNCYFISSEQKTWNESRHLCASQKSSLLQLQNTDELDFMSSSQQFYWIGLSYSEEHTAWLWENGSALSQYLFPSFETFNTKNCIAYNPNGNALDESCEDKNRYICKQQLI” reads “soluble”. The result for “DDAENIEYKVSISGTSVELTCPLDSDENLKWEKNGQELPQKHDKHLVLQDFSEVEDSGYYVCYTPASNKNTYLYLKARVGSADDAKKDAAKKDDAKKDDAKKDGSQTNKAKRALEVLEAEDKVILKCNSSITLLQGTAGQEVSDNKTLNLGKRIEDPRGMYQCGENAKSFTLQVYYRM” reads “soluble”.

The values above are taken from the DeepSol protein solubility set.
